{
  "source": "patent US10836815B2",
  "about": "“Generation and comparative kinetic analysis of new glycosynthase mutants from Streptococcus pyogenes endoglycosidases for antibody glycoengineering” (UNIVERSITY OF MARYLAND, COLLEGE PARK, priority 2017, dated 2020)",
  "format_in_all_cases": "biochemical",
  "key": {"[1]": {"experiment": "Kinetic measurements (KM, Vmax) of Endo-S/Endo-S2 mutants for SCT-Oxa", "method": "Using a sialylated glycan oxazoline (SCT-Oxa) as the donor and the deglycosylated rituximab as the acceptor substrate, we measured the kinetic parameters of the enzyme catalyzed glycosylation were measured. A mass spectrometry-based approach with an internal standard was used to estimate the product formation.^31-33.\n(§1) Peptide-N-Glycosidase F (PNGase F) treated rituximab was used as the internal standard due to its similarities to the deglycosylated and transferred product in terms of their molecular structures and ionization efficiencies. After PNGase F treatment, a mutation will be introduced into the amino acid sequence of rituximab so the product antibody will not interfere with the reaction via re-glycosylation^35. A standard product S2G2F-rituximab was synthesized following the previously reported procedure^29. […] Serial dilutions containing a gradient of S2G2F-rituximab (0, 0.25, 0.5, 0.75, 1.0, 1.25 and 1.5 μM) were mixed with a stock solution containing 0.67 μM internal standard. These mixed sample solutions were quantified by selected ion monitoring (SIM) to calculate the single-point normalization factor^31. The factor could then be used to calculate the relative amount of the final product N-glycoform for each reaction in the following experiments.\nMeasurements of KM and Vmax for SCT-oxa. Serial dilutions with a total volume of 10 μL were prepared with a gradient of SCT-oxa concentrations and a constant deglycosylated antibody concentration mixed in PBS, pH 7.4. Each reaction was initiated by adding 1μμL, of Endo-S/S2 mutants with a concentration of 0.1 mg/M1 and the reaction was conducted at 30° C. The concentrations of SCT-oxa were within a range from 6.25 μM to 400 μM. For each reaction, three aliquots were taken at t=1, 2 and 3 min and immediately quenched in 100 μL 0.1% formic acid. The quenched reaction samples were then characterized by ESI-MS, and the concentration of product in each mixture was calculated using the normalization factor, as shown above. […] The KM and Vmax were measured by fitting the initial velocity against the SCT-oxa concentration using the GraphPad Prism7 program. The experiments were conducts in triplicate to determine the error in these measurements."}, "rituximab": {"tested_on": "rituximab", "experiment": "Hydrolysis activity assay of Endo-S and D233 mutants, LC-ESI-MS", "method": "(§2) The hydrolytic activity of the mutants generated was evaluated using rituximab as the substrate, and the transglycosylation activity was evaluated using the sugar oxazoline and the deglycosylated rituximab as the donor and acceptor substrates, respectively (Scheme 1).\n(§3) The LC-MS characterization of different antibody glycoforms was conducted on an Exactive Plus Orbitrap instrument (Thermo Scientific). The intact antibody sample was analyzed with a Waters XBridge™ BEH300 C4 column (3.5 μm, 2.1×50 mm). The program includes a 9 min linear gradient of 5-90% MeCN containing 0.1% formic acid at a flow rate of 0.4 mL/min. The original mass data were processed through deconvolution and integration through MagTran Software (Amgen).\nas §1\n(§4) The hydrolytic activity of each Endo-S mutants and the wild-type (0.01 mg/mL) was assayed in PBS (pH 7.4, 10 μl) at 30° C. with synthetic biantennary sialo-complex-type rituximab (1.0 mg/mL, 6.9 μM) as the starting material. Each reaction was terminated at 5 min and an aliquot was taken from the reaction mixture and dissolved in 0.1% formic acid. The relative quantity of the hydrolysis product was calculated through deconvolution and integration of the selected MS peaks. The experimental details of product quantification using LC-MS are illustrated below. The transglycosylation activity of Endo-S was measured in a similar fashion: deglycosylated Rituximab (10.0 mg/mL, 69 μM) was incubated with SCT-Oxa (1.38 mM, 20 eq) under catalysis of Endo-S enzymes (0.01 mg/mL) under the same condition as hydrolysis. The transglycosylation product SCT-Rituximab was analyzed as mentioned above. Both functional assays were repeated twice for each mutant and the wild-type, and the average activity was recorded"}, "deglycosylated rituximab [2]": {"tested_on": "deglycosylated rituximab", "experiment": "Kinetic measurements (KM, Vmax) of Endo-S/Endo-S2 mutants for deglycosylated rituximab", "description": "as §1\nMeasurements of KM and Vmax for SCT-oxa. Serial dilutions with a total volume of 10 μL were prepared with a gradient of SCT-oxa concentrations and a constant deglycosylated antibody concentration mixed in PBS, pH 7.4. Each reaction was initiated by adding 1μμL, of Endo-S/S2 mutants with a concentration of 0.1 mg/M1 and the reaction was conducted at 30° C. The concentrations of SCT-oxa were within a range from 6.25 μM to 400 μM. For each reaction, three aliquots were taken at t=1, 2 and 3 min and immediately quenched in 100 μL 0.1% formic acid. The quenched reaction samples were then characterized by ESI-MS, and the concentration of product in each mixture was calculated using the normalization factor, as shown above. A linear progression curve was confirmed for each reaction by sampling at multiple early time points and plotting them in the same graph, which emphasized that the V0 measured indeed represents the initial rate of each reaction. The KM and Vmax were measured by fitting the initial velocity against the SCT-oxa concentration using the GraphPad Prism7 program. The experiments were conducts in triplicate to determine the error in these measurements.\nThe KM and Vmax values of both Endo-S and Endo-S2 mutants for the deglycosylated antibody substrate were measured in a similar fashion as to those for SCT-Oxa. In the serial reactions, the concentrations of antibody range from 0.313 μM to 20 μM, whereas the SCT-Oxa concentration was fixed at 400 μM. A similar control reaction was also performed for each concentration to monitor the non-enzymatic side reactions."}, "deglycosylated rituximab [3]": {"tested_on": "deglycosylated rituximab", "experiment": "Time-course comparison of transglycosylation with SCT-Oxazoline monitored by LC-ESI-MS (FIG. 1)", "conditions": "D233M, D233Q, D233A compared with glycan oxazoline under same conditions", "description": "The data sets presented here are representative of three independent experiments.\nThe parallel reactions were monitored by LC-ESI-MS (FIG. 1)."}, "deglycosylated rituximab [4]": {"tested_on": "deglycosylated rituximab", "experiment": "Transglycosylation activity assay of Endo-S and D233 mutants, LC-ESI-MS", "method": "as §2, §3, §1, §4"}, "[5]": {"conditions": "Endo-S mutants, donor substrate SCT-Oxa, PBS pH 7.4, 30° C."}, "[6]": {"conditions": "Endo-S mutants, acceptor substrate deglycosylated rituximab, SCT-Oxa fixed at 400 μM"}},
  "note": "“Also recorded” adds a separate entry of the source.",
  "data": [
    {"molecule": "Endo-S D233M (protein) MDKHLLVKRTLGCVCAATLMGAALATHHDSLNTVKAEEKTVQVQKGLPSIDSLHYLSENSKKEFKEELSKAGQESQKVKEILAKAQQADKQAQELAKMKIPEKIPMKPLHGPLYGGYFRTWHDKTSDPTEKDKVNSMGELPKEVDLAFIFHDWTKDYSLFWKELATKHVPKLNKQGTRVIRTIPWRFLAGGDNSGIAEDTSKYPNTPEGNKALAKAIVDEYVYKYNLDGLDVMVEHDSIPKVDKKEDTAGVERSIQVFEEIGKLIGPKGVDKSRLFIMDSTYMADKNPLIERGAPYINLLLVQVYGSQGEKGGWEPVSNRPEKTMEERWQGYSKYIRPEQYMIGFSFYEENAQEGNLWYDINSRKDEDKANGINTDITGTRAERYARWQPKTGGVKGGIFSYAIDRDGVAHQPKKYAKQKEFKDATDNIFHSDYSVSKALKTVMLKDKSYDLIDEKDFPDKALREAVMAQVGTRKGDLERFNGTLRLDNPAIQSLEGLNKFKKLAQLDLIGLSRITKLDRSVLPANMKPGKDTLETVLETYKKDNKEEPATIPPVSLKVSGLTGLKELDLSGFDRETLAGLDAATLTSLEKVDISGNKLDLAPGTENRQIFDTMLSTISNHVGSNEQTVKFDKQKPTGHYPDTYGKTSLRLPVANEKVDLQSQLLFGTVTNQGTLINSEADYKAYQNHKIAGRSFVDSNYHYNNFKVSYENYTVKVTDSTLGTTTDKTLATDKEETYKVDFFSPADKTKAVHTAKVIVGDEKTMMVNLAEGATVIGGSADPVNARKVFDGQLGSETDNISLGWDSKQSIIFKLKEDGLIKHWRFFNDSARNPETTNKPIQEASLQIFNIKDYNLDNLLENPNKFDDEKYWITVDTYSAQGERATAFSNTLNNITSKYWRVVFDTKGDRYSSPVVPELQILGYPLPNADTIMKTVTTAKELSQQKDKFSQKMLDELKIKEMALETSLNSKIFDVTAINANAGVLKDCIEKRQLLKK", "values": [
      {"measurement": "Km", "setting": "[1]; [5]", "result": "195 ± 7.21", "unit": "µM"},
      {"measurement": "kcat", "setting": "[1]; [5]", "result": "0.0832 ± 0.0152", "unit": "s⁻¹"},
      {"measurement": "increase in kcat/KM over Endo-S D233A", "setting": "[1]; SCT-Oxa", "result": 3, "unit": "fold"},
      {"measurement": "increase in turnover (kcat) over D233A", "setting": "[1]; SCT-Oxa", "result": "approximately 4 fold"},
      {"measurement": "reduced affinity (KM) versus D233A", "setting": "[1]; SCT-Oxa", "result": "less than 2 fold"},
      {"measurement": "Specific Hydrolysis Activity", "setting": "rituximab; rituximab 1.0 mg/mL as substrate, enzyme 0.01 mg/mL, PBS pH 7.4, 30° C., 5 min, duplicate", "result": "0.02 100*(μmol/min/mg)"},
      {"measurement": "hydrolysis activity (in words)", "setting": "rituximab; rituximab as substrate, compared with wild type Endo-S and other mutants", "result": "remarkably low residual hydrolysis activity"},
      {"measurement": "substrate affinity for the deglycosylated antibody (in words)", "setting": "deglycosylated rituximab [2]; Asp-to-Met versus Asp-to-Ala mutant", "result": "much higher substrate affinity than the D233A mutant"},
      {"measurement": "Km", "setting": "deglycosylated rituximab [2]; [6]", "result": "30.2 ± 7.21", "unit": "µM"},
      {"measurement": "kcat", "setting": "deglycosylated rituximab [2]; [6]", "result": "0.0922 ± 0.0318", "unit": "s⁻¹"},
      {"measurement": "Km", "setting": "deglycosylated rituximab [2]; Endo-S mutants, acceptor substrate deglycosylated rituximab, SCT-Oxa fixed at 400 μM, listed as D233M", "result": 30, "unit": "µM"},
      {"measurement": "transglycosylation efficiency in time-course (in words)", "setting": "deglycosylated rituximab [3]", "result": "more efficient than the previously identified mutants, D233A and D233Q"},
      {"measurement": "enhanced synthetic efficiency (T/H) over D233A", "setting": "deglycosylated rituximab [4]; based on Table 1", "result": "~8", "unit": "fold"},
      {"measurement": "enhanced synthetic efficiency (T/H) over D233Q", "setting": "deglycosylated rituximab [4]; based on Table 1", "result": "approximately 3 fold"},
      {"measurement": "transglycosylation activity (in words)", "setting": "deglycosylated rituximab [4]; biantennary complex-type glycan oxazoline to deglycosylated rituximab", "result": "most significant transglycosylation activities; also recorded: relatively high transglycosylation activity"},
      {"measurement": "Transglycosylation Activity", "setting": "deglycosylated rituximab [4]; deglycosylated rituximab 10.0 mg/mL, SCT-Oxa 1.38 mM (20 eq), enzyme 0.01 mg/mL, PBS pH 7.4, 30° C., duplicate", "result": "2.71 100*(μmol/min/mg)"},
      {"measurement": "Transglycosylation/Hydrolysis Ratio T/H", "setting": "deglycosylated rituximab [4]; ratio of transglycosylation to hydrolysis activity, Table 1", "result": 135.50},
      {"measurement": "overall efficiency for glycoform synthesis (T/H, in words)", "setting": "deglycosylated rituximab [4]; ratio of transglycosylation/hydrolysis", "result": "highest overall synthetic efficiency"}
    ]}
  ]
}
